Several values for one entry are separate records, joined by “and”; a condition that tells them apart may be missing. Equal entries are not always repeated.

The nature of series [1]: LNP size and polydispersity by DLS (Malvern Panalytical). The following applies: mRNA LNPs, Example 6. In kind it is physicochemical. As to the method: (§1) To prepare lipid nanoparticles (LNPs), the mRNA stocks were thawed on ice. Nucleic acid concentrations were validated by absorbance at 260 nm using a NanoDrop. The mRNAs were then diluted to a final concentration of 0.35 mg/mL mRNA in Precision Nanosystem's dilution buffer. 10 mL of the dilute mRNAs were loaded into separate Luer lock syringes and all bubbles were removed by gentle tapping. A NanoAssemblr Ignite NxGen Cartridge was loaded into the cartridge slot of the Ignite instrument (FIG. 8A, 801) and one mRNA syringe was attached to the aqueous inlet of the cartridge. 3.3 mL of Genvoy-ILM reagent was loaded into a separate Luer lock syringes and all bubbles were removed by gentle tapping. The Genvoy-ILM syringe was then attached to the organic inlet of the cartridge. LNPs were then generated and collected into a 15 mL conical tube. The process was repeated for the remaining two mRNAs and for a buffer only LNP control (empty). Immediately after LNPs were generated, the samples were loaded into 10K dialysis cartridges, submerged into 1×DPBS (Ca^2+ and Mg^2+-free) to reduce the ethanol concentration to <0.5%. After dialysis the LNPs were recovered from the dialysis cartridges and sterile filtered at 0.2 um. Size and polydispersity (FIG. 8A, 802) were measured using a Malvern Panalytical DLS by diluting 40 uL of LNPs into 360 uL of 1×DPBS. […] Encapsulation efficiency was measured using a RiboGreen assay following Precision Nanosystems recommended protocol using a BioTek Synergy H1 Plate Reader. The resultant encapsulation efficiencies are shown in Table 14, with an average of ˜85%.
(§2) To prepare lipid nanoparticles (LNPs), the mRNA stocks were thawed on ice. Nucleic acid concentrations were validated by absorbance at 260 nm using a NanoDrop. The mRNAs were then diluted to a final concentration of 0.35 mg/mL mRNA in Precision Nanosystem's dilution buffer. 10 mL of the dilute mRNAs were loaded into separate Luer lock syringes and all bubbles were removed by gentle tapping. A NanoAssemblr Ignite NxGen Cartridge was loaded into the cartridge slot of the Ignite instrument and one mRNA syringe was attached to the aqueous inlet of the cartridge. 3.3 mL of Genvoy-ILM reagent was loaded into a separate Luer lock syringes and all bubbles were removed by gentle tapping. The Genvoy-LM syringe was then attached to the organic inlet of the cartridge. LNPs were then generated and collected into a 15 mL conical tube. The process was repeated for the remaining mRNAs and for a buffer only LNP control (empty). Immediately after LNPs were generated, the samples were loaded into 10K dialysis cartridges, submerged into Ix DPBS (Ca^2+ and Mg^2+-free) to reduce the ethanol concentration to <0.5%. After dialysis the LNPs were recovered from the dialysis cartridges and sterile filtered at 0.2 um. Size and polydispersity (FIG. 12 and FIG. 13) were measured using a Malvern Panalytical DLS by diluting 40 uL of LNPs into 360 uL of 1×DPBS. […] Encapsulation efficiency was measured using a RiboGreen assay following Precision Nanosystems recommended protocol using a BioTek Synergy H1 Plate Reader. The resultant encapsulation efficiencies are shown in Table 18, with an average of ˜60%.
(§3) To prepare lipid nanoparticles (LNPs), the mRNA stocks are thawed on ice. Nucleic acid concentrations are validated by absorbance at 260 nm using a NanoDrop. The mRNAs are then diluted to a final concentration of 0.35 mg/mL mRNA in Precision Nanosystem's dilution buffer. 10 mL of the dilute mRNAs are loaded into separate Luer lock syringes and all bubbles are removed by gentle tapping. A NanoAssemblr Ignite NxGen Cartridge is loaded into the cartridge slot of the Ignite instrument and one mRNA syringe is attached to the aqueous inlet of the cartridge. 3.3 mL of Genvoy-ILM reagent is loaded into a separate Luer lock syringes and all bubbles are removed by gentle tapping. The Genvoy-ILM syringe is then attached to the organic inlet of the cartridge. […]

Series [2] can be described thus: LNP encapsulation efficiency, RiboGreen assay. The note with it: mRNA LNPs, Example 6. Type of series: physicochemical. The protocol: as §1, §2, §3
Series [3] has as its system total IgG. The series can be described thus: Total sera IgG by radial immunodiffusion after IM or SQ vaccination with OVA mRNA LNPs. The note with it: for Serum IgG Concentration: one line per animal replicate. In kind it is in vivo, dairy cows. The protocol:
(§4) Bovine nucleic acid vaccination protocols (SQ and IM) were assessed in vivo in the dairy cows through the quantification of the adaptive immune response following inoculation with ovalbumin (OVA). Immune response was assessed by quantifying total IgG and OVA-specific IgG over a 28-day period after vaccination. Both SQ and IM vaccination provided a robust immune response, with IM vaccination providing a higher total immune response than SQ vaccination.
(§5) Dairy cows were dried off for a period of eight days prior to vaccination. Each vaccine formulation was administered either by IM or SQ injection to three animals. In total, 15 animals were vaccinated with LNPs containing mRNA and 6 animals were vaccinated with empty LNPs. Intramuscular injections were delivered into the cow's right neck muscle by veterinary-trained staff using an 18-gauge 1-1.5″ needle. Subcutaneous injections were delivered into the cow's right shoulder by veterinary-trained staff using an 18-gauge 0.5-0.75″ needle. Total blood samples (˜20 mL) were collected by veterinary-trained staff. Samples were collected into 10 mL vacutainer tubes (2×10 mL) from the coccygeal vein (tail vein) by needle puncture. Harvested blood samples were then processed via ultracentrifugation for serum collection. Isolated serum samples were aliquoted, labeled and stored in cryogenic tubes at −20° C. until use.
Sera samples were thawed on ice and total IgG was quantified using Triple J Farms' Ig Radial Immunodiffusion (RID) kits (Cat No. 728411) following the manufacturers recommended protocol.

Series [4] has as its system ovalbumin (OVA). The series can be described thus: OVA-specific IgG ELISA of sera after IM or SQ vaccination. In kind it is in vivo, dairy cows. The following applies: one line per animal replicate. As to the method: as §4, §5
Sera samples were thawed on ice and total IgG was quantified using NovateinBio's Bovine OVA sIgG Antibody ELISA Kit (Cat No. BG-BVN11731) following the manufacturer's recommended protocol. Each of the animals vaccinated with a construct show a demonstrable OVA-specific IgG response over the 28-day test period.
(ELISA stands for enzyme-linked immunosorbent assay.)

B1: ARK011: mRNA: SP + Ova + TM/C, membrane-anchored OVA; SEQ ID NO: 16673 (nucleic acid)
chain: ATGTTCGTGTTCCTCGTGCTCCTGCCCCTCGTCTCCAGCCAGTGCGTGGGGTCCATAGGGGCTGCTTCTATGGAGTTCTGTTTTGATGTTTTCAAGGAACTGAAGGTTCACCATGCTAACGAGAACATCTTTTACTGTCCAATAGCCATCATGAGTGCGCTTGCTATGGTTTATTTGGGTGCAAAAGATTCTACTCGCACTCAGATTAATAAGGTCGTTAGATTCGACAAGCTTCCAGGGTTTGGAGACAGTATTGAGGCCCAATGTGGAACGTCAGTCAACGTCCATTCTTCTCTGCGGGACATTCTCAACCAAATAACGAAGCCAAACGACGTGTATTCCTTCTCACTCGCGTCACGGCTGTATGCTGAAGAAAGGTATCCTATCTTGCCAGAATATCTCCAGTGCGTCAAGGAGTTGTATCGAGGCGGACTGGAACCGATCAACTTTCAGACTGCAGCCGACCAGGCCCGCGAACTGATCAACAGCTGGGTCGAGTCTCAGACCAATGGGATCATACGCAATGTGTTGCAACCGAGTAGTGTCGACTCTCAGACGGCTATGGTCTTGGTGAACGCTATAGTCTTCAAAGGTCTGTGGGAGAAGACCTTCAAGGATGAAGACACACAAGCGATGCCATTCAGAGTCACCGAACAAGAAAGCAAACCCGTCCAAATGATGTACCAAATTGGGCTTTTTCGGGTGGCCTCTATGGCCTCTGAGAAAATGAAAATATTGGAACTGCCCTTCGCCAGCGGCACAATGAGTATGTTGGTCCTTCTTCCAGATGAAGTCTCAGGTCTCGAACAGCTTGAGTCTATCATTAACTTTGAGAAACTCACTGAATGGACTTCTTCCAATGTGATGGAAGAACGAAAAATCAAAGTCTACCTGCCCCGAATGAAGATGGAAGAGAAATATAATTTGACATCAGTTCTGATGGCCATGGGAATCACAGACGTGTTTTCATCCTCTGCGAATCTGTCTGGCATATCTTCCGCAGAATCTCTCAAGATCAGTCAAGCCGTCCACGCGGCCCATGCTGAGATAAATGAGGCGGGCAGAGAGGTGGTGGGGTCCGCCGAAGCTGGAGTCGACGCAGCTTCTGTCAGTGAAGAATTTAGGGCCGATCATCCTTTCCTGTTCTGCATAAAGCACATAGCTACGAACGCTGTGCTTTTCTTTGGCAGATGCGTTTCTCCACCCTGGTACATCTGGCTGGGCTTCATCGCAGGACTGATCGCCATCGTCATGGTCACCATAATGCTCTGTTGCATGACCTCCTGCTGTAGCTGCCTGAAAGGCTGTTGCAGCTGCGGGAGCTGCTGCAAATTCGACGAAGACGATAGCGAACCTGTGCTCAAAGGGGTGAAGTTGCATTACACATAGTGA
modifications: listed as DNA
Regarding B1, the PDI in series [1] worked out at 0.1665. For the same molecule, in series [1], the “Z-avg.” value was 97.79 nm·days. In addition, the Encapsulation efficiency in series [2] was found to be 83%. For the same molecule, the “Serum IgG Concentration” value in series [3] (IM injection, Day 0, dairy cows, dose 348-468 ug) was 5,261 mg/dL and 5,203 mg/dL and 6,150 mg/dL; in series [3] (IM injection, Day 14, dairy cows, dose 348-468 ug), 4,902 mg/dL and 5,664 mg/dL and 6,716 mg/dL; in series [3] (IM injection, Day 28, dairy cows, dose 348-468 ug) it was 3,702 mg/dL and 4,145 mg/dL and 3,794 mg/dL; in series [3] (SQ injection, Day 0, dairy cows, dose 353-468 ug), 4,956 mg/dL and 5,599 mg/dL and 4,964 mg/dL; in series [3] (SQ injection, Day 14, dairy cows, dose 353-468 ug) it was 4,815 mg/dL and 4,777 mg/dL and 6,139 mg/dL; in series [3] (SQ injection, Day 21, dairy cows, dose 353-468 ug), 5,722 mg/dL and 4,034 mg/dL and 7,379 mg/dL. Further, the “Serum IgG Concentration” value in series [3] (SQ injection, Day 28, dairy cows, dose 353-468 ug) was 4,877 mg/dL and 4,344 mg/dL and 3,730 mg/dL. In series [3] (dairy cows, 3 animals per construct, 28-day test period, FIG. 9), the “total sera IgG immune response, treated groups normalized against the empty groups” value is “robust and prolonged immune response across all 3 animals”. Also, the “OVA-specific IgG, Absorbance (OD450)” value in series [4] (IM injection, Day 0, dairy cows) is 0.327 OD450 and 0.591 OD450 and 1.937 OD450; in series [4] (IM injection, Day 14, dairy cows), 0.64 OD450 and 0.616 OD450 and 1.817 OD450; in series [4] (IM injection, Day 21, dairy cows), 0.757 OD450 and 0.513 OD450 and 2.024 OD450; in series [4] (IM injection, Day 28, dairy cows), 0.626 OD450 and 0.603 OD450 and 1.663 OD450; in series [4] (SQ injection, Day 0, dairy cows), 1.004 OD450 and 0.952 OD450 and 0.756 OD450; in series [4] (SQ injection, Day 14, dairy cows) it was 1.16 OD450 and 0.955 OD450 and 1.085 OD450. The “OVA-specific IgG, Absorbance (OD450)” value was 1.036 OD450 and 0.7 OD450 and 1.063 OD450 in series [4] (SQ injection, Day 21, dairy cows); 0.916 OD450 and 0.68 OD450 and 0.704 OD450 in series [4] (SQ injection, Day 28, dairy cows).

Values taken from patent publication US20240189408A1, “COMPOSITIONS AND METHODS FOR REDUCING METHANE EMISSIONS IN RUMINANT POPULATIONS” (Arkea Bio Corp., priority 2022, published 2024).
